Test results from paper PMC10198636 (Science Advances, 2023).

Target: Cul3(N), recombinant N-terminal domain of human Cul3 (human, UniProt Q13618 1-417)
Assay: ITC

Sequence of Cul3(N), recombinant N-terminal domain of human Cul3 (Q13618 1-417): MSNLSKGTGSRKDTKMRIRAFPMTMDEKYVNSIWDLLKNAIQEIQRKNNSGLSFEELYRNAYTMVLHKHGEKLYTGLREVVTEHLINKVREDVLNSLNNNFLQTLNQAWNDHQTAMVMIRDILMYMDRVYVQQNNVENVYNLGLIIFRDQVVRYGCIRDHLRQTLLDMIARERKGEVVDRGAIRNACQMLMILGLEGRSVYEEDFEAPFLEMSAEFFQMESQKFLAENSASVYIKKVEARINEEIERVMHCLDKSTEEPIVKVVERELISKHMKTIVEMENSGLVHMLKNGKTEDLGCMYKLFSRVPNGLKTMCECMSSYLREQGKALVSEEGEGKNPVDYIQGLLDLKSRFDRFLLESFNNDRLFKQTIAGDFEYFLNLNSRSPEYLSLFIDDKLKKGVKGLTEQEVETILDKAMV

Binder | Kd [µM]
KLHL3(N), recombinant N-terminal portion of human KLHL3 spanning the BTB and BACK domains (domain or fragment) MEGESVKLSSQTLIQAGDDEKNQRTITVNPAHMGKAFKVMNELRSKQLLCDVMIVAEDVEIEAHRVVLAACSPYFCAMFTGDMSESKAKKIEIKDVDGQTLSKLIDYIYTAEIEVTEENVQVLLPAASLLQLMDVRQNCCDFLQSQLHPTNCLGIRAFADVHTCTDLLQQANAYAEQHFPEVMLGEEFLSLSLDQVCSLISSDKLTVSSEEKVFEAVISWINYEKETRLEHMAKLMEHVRLPLLPRDYLVQTVEEEALIKNNNTCKDFLIEAMKYHLLP | 0.0138
Keap1(N), recombinant N-terminal portion of human Keap1 spanning the BTB and BACK domains (domain or fragment) MQPDPRPSGAGACCRFLPLQSQCPEGAGDAVMYASTECKAEVTPSQHGNRTFSYTLEDHTKQAFGIMNELRLSQQLCDVTLQVKYQDAPAAQFMAHKVVLASSSPVFKAMFTNGLREQGMEVVSIEGIHPKVMERLIEFAYTASISMGEKCVLHVMNGAVMYQIDSVVRACSDFLVQQLDPSNAIGIANFAEQIGCVELHQRAREYIYMHFGEVAKQEEFFNLSHCQLVTLISRDDLNVRCESEVFHACINWVKYDCEQRRFYVQALLRAVRCHSLTPNFLQMQLQKCEILQSDSRCKDYLVKIFEELT | 0.562
